Assay results published in patent publication US20240132624A1 (Ablynx, published 2024).
Changes are numbered by the printed parent chain.

B1: T0263018B11 T57S (VHH, name in Kabat numbering)
VHH: EVQLVESGGGVVQPGGSLRLSCAASGFTFSSYAMYWVRQAPGKGLEWVSAISSGGGSSDYADSVKGRFTISRDNSKNTLYLQMNSLRPEDTALYYCAADTLYTSLTWYSYWGQGTLVTVSS
notes: FLAG3-His6 tagged
B2: T0263018B11 T96S (VHH, name in Kabat numbering)
VHH: B1 VHH with S58T, T100S
notes: FLAG3-His6 tagged
B3: T0263018B11 Y35F (VHH, name in Kabat numbering)
VHH: B1 VHH with Y35F, S58T
notes: FLAG3-His6 tagged
B4: T0263018B11 T100bL (VHH, name in Kabat numbering)
VHH: B1 VHH with S58T, T106L
notes: FLAG3-His6 tagged
B5: T0263018B11 Y32F (VHH, name in Kabat numbering)
VHH: B1 VHH with Y32F, S58T
notes: FLAG3-His6 tagged
B6: T0263018B11 Y102T (VHH, name in Kabat numbering)
VHH: B1 VHH with S58T, Y110T
notes: FLAG3-His6 tagged
B7: T0263018B11 W100cV (VHH, name in Kabat numbering)
VHH: B1 VHH with S58T, W107V
notes: FLAG3-His6 tagged
B8: T0263018B11 T96Q (VHH, name in Kabat numbering)
VHH: B1 VHH with S58T, T100Q
notes: FLAG3-His6 tagged
B9: T0263018B11 W100cF (VHH, name in Kabat numbering)
VHH: B1 VHH with S58T, W107F
notes: FLAG3-His6 tagged
B10: T0263018B11 W100cA (VHH, name in Kabat numbering)
VHH: B1 VHH with S58T, W107A
notes: FLAG3-His6 tagged
B11: T0263018B11 W100cQ (VHH, name in Kabat numbering)
VHH: B1 VHH with S58T, W107Q
notes: FLAG3-His6 tagged
B12: T0263018B11 T96I (VHH, name in Kabat numbering)
VHH: B1 VHH with S58T, T100I
notes: FLAG3-His6 tagged
B13: T0263018B11 T96V (VHH, name in Kabat numbering)
VHH: B1 VHH with S58T, T100V
notes: FLAG3-His6 tagged
B14: T0263018B11 W100cY (VHH, name in Kabat numbering)
VHH: B1 VHH with S58T, W107Y
notes: FLAG3-His6 tagged
B15: T0263018B11 W100cL (VHH, name in Kabat numbering)
VHH: B1 VHH with S58T, W107L
notes: FLAG3-His6 tagged
B16: T0263018B11 T96M (VHH, name in Kabat numbering)
VHH: B1 VHH with S58T, T100M
notes: FLAG3-His6 tagged
B17: T0263018B11 Y98F (VHH, name in Kabat numbering)
VHH: B1 VHH with S58T, Y102F
notes: FLAG3-His6 tagged
B18: T0263018B11 T96Y (VHH, name in Kabat numbering)
VHH: B1 VHH with S58T, T100Y
notes: FLAG3-His6 tagged
B19: T0263018B11 T57V (VHH, name in Kabat numbering)
VHH: B1 VHH with S58V
notes: FLAG3-His6 tagged
B20: T0263018B11 T96F (VHH, name in Kabat numbering)
VHH: B1 VHH with S58T, T100F
notes: FLAG3-His6 tagged
B21: T0263018B11 T100bE (VHH, name in Kabat numbering)
VHH: B1 VHH with S58T, T106E
notes: FLAG3-His6 tagged
B22: T0263018B11 Y32S (VHH, name in Kabat numbering)
VHH: B1 VHH with Y32S, S58T
notes: FLAG3-His6 tagged
B23: T0263018B11 W100cG (VHH, name in Kabat numbering)
VHH: B1 VHH with S58T, W107G
notes: FLAG3-His6 tagged
B24: T0263018B11 Y32Q (VHH, name in Kabat numbering)
VHH: B1 VHH with Y32Q, S58T
notes: FLAG3-His6 tagged
B25: T0263018B11 T96A (VHH, name in Kabat numbering)
VHH: B1 VHH with S58T, T100A
notes: FLAG3-His6 tagged
B26: T0263018B11 Y32T (VHH, name in Kabat numbering)
VHH: B1 VHH with Y32T, S58T
notes: FLAG3-His6 tagged
B27: T0263018B11 W100cD (VHH, name in Kabat numbering)
VHH: B1 VHH with S58T, W107D
notes: FLAG3-His6 tagged
B28: T0263018B11 Y32V (VHH, name in Kabat numbering)
VHH: B1 VHH with Y32V, S58T
notes: FLAG3-His6 tagged
B29: T0263018B11 T57W (VHH, name in Kabat numbering)
VHH: B1 VHH with S58W
notes: FLAG3-His6 tagged
B30: T0263018B11 Y32L (VHH, name in Kabat numbering)
VHH: B1 VHH with Y32L, S58T
notes: FLAG3-His6 tagged
B31: T0263018B11 Y100dF (VHH, name in Kabat numbering)
VHH: B1 VHH with S58T, Y108F
notes: FLAG3-His6 tagged

target: T1, human FcRn/b2M (human, UniProt P61769 21-119, biotinylated); assay: SPR pH 7.4;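 further: surface plasmon resonance kinetics, periplasmic extracts diluted 1:10 flowed over immobilized target at 25 °C, 120 s association then 600–3600 s dissociation, buffer with 150 mM NaCl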
T1 construct: bought recombinant biotinylated protein (ACRO FCM-H82W4 or Immunitrack ITF01); also called hFcRn; hFcRn/hb2M
Method: (§1) All kinetic measurements have been performed on ProteOn XPR36 (BioRad Laboratories, Inc.), MASS-2 (Sierra sensors, Gmbh) or SPR-32 (Bruker Corporation). […] The phytip purified periplasmic extracts were diluted 1:10 in running buffer (CPA+150 mM NaCl+0.005% Tw20 at pH 5.5, pH 6.0 or pH 7.4) and injected over the ligand surfaces (association: 120 s at 45 μL/min; dissociation: 600s-3600 s at 45 μL/min). Experiments were carried out at 25° C.

koff [s⁻¹]	Binder
0.041	B1
0.053	B2
0.14	B3
0.14	B4
0.026	B5
0.065	B6
0.5	B7
0.091	B8
0.16	B9
0.5	B10
0.5	B11
0.036	B12
0.021	B13
0.09	B14
0.46	B15
0.067	B16

koff [s⁻¹]	Binder
0.04	B17
0.024	B18
0.034	B19
0.16	B20
0.032	B21
0.19	B22
0.42	B23
0.14	B24
0.14	B25
0.19	B26
0.14	B27
0.048	B28
0.033	B29
0.61	B30
0.06	B31

target: T2, cyno FcRn/b2M (cyno, UniProt Q8SPV9 24-297; Q8SPW0 21-119, biotinylated); assay: SPR pH 7.4;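 further: surface plasmon resonance kinetics, periplasmic extracts diluted 1:10 flowed over immobilized target at 25 °C, 120 s association then 600–3600 s dissociation, buffer with 150 mM NaCl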
T2 construct: bought recombinant biotinylated protein (Immunitrack ITF05 or ACRO FCM-C82W5); also called cFcRn; cFcRn/cb2M
T2 sequence (Q8SPV9 24-297 limits assumed, chain 1 of 2): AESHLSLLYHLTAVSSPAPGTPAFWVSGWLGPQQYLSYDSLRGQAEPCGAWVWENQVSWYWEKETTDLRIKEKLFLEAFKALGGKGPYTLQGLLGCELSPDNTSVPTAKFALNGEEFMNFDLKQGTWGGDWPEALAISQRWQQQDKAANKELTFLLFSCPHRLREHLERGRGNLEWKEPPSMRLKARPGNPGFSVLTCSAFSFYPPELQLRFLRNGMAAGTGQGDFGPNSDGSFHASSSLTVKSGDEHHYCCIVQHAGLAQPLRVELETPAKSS
T2 sequence (Q8SPW0 21-119 limits assumed, chain 2 of 2): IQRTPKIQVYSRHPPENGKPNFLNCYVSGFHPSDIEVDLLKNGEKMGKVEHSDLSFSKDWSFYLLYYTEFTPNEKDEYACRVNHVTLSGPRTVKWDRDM
Method: as §1

koff [s⁻¹]	Binder
0.029	B1
0.053	B2
0.16	B3
0.18	B4
0.019	B5
0.06	B6
0.18	B7
0.092	B8
0.15	B9
0.5	B10
0.5	B11
0.024	B12
0.014	B13
0.075	B14
0.43	B15
0.047	B16

koff [s⁻¹]	Binder
0.022	B17
0.017	B18
0.027	B19
0.2	B20
0.025	B21
0.14	B22
0.38	B23
0.099	B24
0.16	B25
0.21	B26
0.13	B27
0.13	B28
0.028	B29
0.39	B30
0.057	B31

target: T1, human FcRn/b2M; assay: SPR pH 6.0;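 further: surface plasmon resonance kinetics at 25 °C, diluted periplasmic extracts injected over immobilized ligand surfaces, 120 s association then 600–3600 s dissociation, running buffer containing 150 mM NaCl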
Method: as §1

koff [s⁻¹]	Binder
0.0011	B1
0.0016	B2
0.0043	B3
0.0037	B4
0.00066	B5
0.0017	B6
0.0082	B7
0.0026	B8
0.0036	B9
0.01	B10
0.009	B11
0.00069	B12
0.00047	B13
0.0021	B14
0.0064	B15
0.0016	B16

koff [s⁻¹]	Binder
0.00053	B17
0.00054	B18
0.00077	B19
0.0031	B20
0.00071	B21
0.0054	B22
0.0092	B23
0.0023	B24
0.0039	B25
0.0045	B26
0.0073	B27
0.004	B28
0.0009	B29
0.013	B30
0.0023	B31

target: T2, cyno FcRn/b2M; assay: SPR pH 6.0;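 further: surface plasmon resonance kinetics at 25 °C, diluted periplasmic extracts injected over immobilized ligand surfaces, 120 s association then 600–3600 s dissociation, running buffer containing 150 mM NaCl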
Method: as §1

koff [s⁻¹]	Binder
0.00071	B1
0.0012	B2
0.0035	B3
0.0032	B4
0.00042	B5
0.0012	B6
0.0024	B7
0.002	B8
0.0024	B9
0.0062	B10
0.0059	B11
0.00042	B12
0.00036	B13
0.0015	B14
0.0051	B15
0.00097	B16

koff [s⁻¹]	Binder
0.00026	B17
0.00035	B18
0.00064	B19
0.0024	B20
0.00049	B21
0.0028	B22
0.0051	B23
0.0013	B24
0.0029	B25
0.0035	B26
0.003	B27
0.0022	B28
0.00073	B29
0.0084	B30
0.0017	B31

target: T1, human FcRn/b2M; assay: SPR off-rate; pH 7.4 vs pH 6.0;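 further: surface plasmon resonance with diluted periplasmic extracts flowed over ligand surfaces, 120 s association and 600–3600 s dissociation at 25 °C, running buffer containing 150 mM NaCl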
Method: as §1

kd ratio pH 7.4/6.0	Binder
39	B1
33	B2
33	B3
38	B4
39	B5
38	B6
61	B7
35	B8
44	B9
50	B10
56	B11
52	B12
45	B13
43	B14
72	B15
42	B16

kd ratio pH 7.4/6.0	Binder
75	B17
45	B18
44	B19
52	B20
45	B21
35	B22
46	B23
60	B24
36	B25
42	B26
19	B27
12	B28
37	B29
49	B30
26	B31

target: T2, cyno FcRn/b2M; assay: SPR off-rate; pH 7.4 vs pH 6.0;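 further: surface plasmon resonance with diluted periplasmic extracts flowed over ligand surfaces, 120 s association and 600–3600 s dissociation at 25 °C, running buffer containing 150 mM NaCl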
Method: as §1

kd ratio pH 7.4/6.0	Binder
41	B1
44	B2
46	B3
56	B4
46	B5
50	B6
76	B7
46	B8
63	B9
81	B10
85	B11
57	B12
40	B13
50	B14
84	B15
49	B16

kd ratio pH 7.4/6.0	Binder
84	B17
50	B18
42	B19
83	B20
51	B21
52	B22
75	B23
75	B24
55	B25
60	B26
45	B27
60	B28
38	B29
46	B30
34	B31
